According to US10562947B2, “Compositions and methods for preventing or treating diseases, conditions or processes characterized by aberrant fibroblast proliferation and extracellular matrix deposition” (MOERAE MATRIX, INC., priority 2011, dated 2020):

Experiments:
Experiment in all cases: Kinase Profiling Assay
Format in all cases: biochemical
Details in all cases: 100 μM peptide
ALK4(h) = biological target: T1, ALK4(h) (Homo sapiens, UniProt P36896)
T1 sequence (P36896 24-505): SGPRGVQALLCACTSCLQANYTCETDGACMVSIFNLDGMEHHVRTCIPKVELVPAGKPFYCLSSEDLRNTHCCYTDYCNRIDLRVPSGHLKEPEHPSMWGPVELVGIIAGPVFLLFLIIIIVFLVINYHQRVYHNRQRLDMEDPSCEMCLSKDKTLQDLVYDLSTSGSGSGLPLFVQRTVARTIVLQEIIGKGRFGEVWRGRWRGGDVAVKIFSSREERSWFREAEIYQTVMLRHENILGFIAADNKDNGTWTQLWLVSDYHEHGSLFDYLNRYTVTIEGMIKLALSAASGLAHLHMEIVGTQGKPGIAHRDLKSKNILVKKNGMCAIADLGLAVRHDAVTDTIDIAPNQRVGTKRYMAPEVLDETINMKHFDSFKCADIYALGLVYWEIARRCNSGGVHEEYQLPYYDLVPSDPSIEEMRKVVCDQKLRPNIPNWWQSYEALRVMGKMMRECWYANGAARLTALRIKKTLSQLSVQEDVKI
In short: (§1)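 Duplicate activity readings per kinase; peptide inhibitors of MK2 profiled against 266 human kinases for selectivity.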

Bmx(h) = biological target: T2, Bmx(h) (Homo sapiens, UniProt P51813)
T2 sequence (P51813 1-675): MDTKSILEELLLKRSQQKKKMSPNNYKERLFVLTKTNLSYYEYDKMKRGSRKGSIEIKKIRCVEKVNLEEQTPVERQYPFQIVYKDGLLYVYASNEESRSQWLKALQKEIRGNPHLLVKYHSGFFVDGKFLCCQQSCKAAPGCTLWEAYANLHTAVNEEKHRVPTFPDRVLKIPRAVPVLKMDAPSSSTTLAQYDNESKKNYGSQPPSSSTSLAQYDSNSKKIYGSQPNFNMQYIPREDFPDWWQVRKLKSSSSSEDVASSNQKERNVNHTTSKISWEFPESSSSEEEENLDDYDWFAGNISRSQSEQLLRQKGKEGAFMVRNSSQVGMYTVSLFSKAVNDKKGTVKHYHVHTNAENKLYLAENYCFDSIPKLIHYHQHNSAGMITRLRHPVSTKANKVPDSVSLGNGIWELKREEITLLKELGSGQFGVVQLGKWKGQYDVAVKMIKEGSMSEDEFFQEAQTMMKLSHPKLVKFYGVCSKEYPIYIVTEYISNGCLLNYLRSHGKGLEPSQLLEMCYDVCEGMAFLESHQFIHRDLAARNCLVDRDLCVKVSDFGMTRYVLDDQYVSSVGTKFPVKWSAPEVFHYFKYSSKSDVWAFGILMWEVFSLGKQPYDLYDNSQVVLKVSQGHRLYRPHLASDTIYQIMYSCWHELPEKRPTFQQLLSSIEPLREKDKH
In short: as §1

Fyn(h) = Fyn(h) (Homo sapiens, UniProt P06241)
Fyn(h), sequence (P06241 whole entry): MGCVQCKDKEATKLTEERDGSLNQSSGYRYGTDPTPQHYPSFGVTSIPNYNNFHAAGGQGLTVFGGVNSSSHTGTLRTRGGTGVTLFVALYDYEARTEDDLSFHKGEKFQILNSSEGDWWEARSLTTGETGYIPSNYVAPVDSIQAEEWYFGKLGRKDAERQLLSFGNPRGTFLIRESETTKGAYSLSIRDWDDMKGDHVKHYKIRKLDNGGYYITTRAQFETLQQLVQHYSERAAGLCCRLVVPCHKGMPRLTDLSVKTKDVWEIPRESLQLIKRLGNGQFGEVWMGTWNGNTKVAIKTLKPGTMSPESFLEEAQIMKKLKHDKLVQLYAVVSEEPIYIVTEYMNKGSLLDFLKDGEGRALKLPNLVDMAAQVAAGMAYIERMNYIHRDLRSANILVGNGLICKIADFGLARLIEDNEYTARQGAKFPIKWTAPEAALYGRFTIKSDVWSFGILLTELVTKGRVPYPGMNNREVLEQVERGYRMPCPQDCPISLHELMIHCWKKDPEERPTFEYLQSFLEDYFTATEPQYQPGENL
In short: as §1

HIPK1(h) = biological target: T3, HIPK1(h) (Homo sapiens, UniProt Q86Z02)
T3 construct: purchased Millipore
T3 sequence (Q86Z02 whole entry): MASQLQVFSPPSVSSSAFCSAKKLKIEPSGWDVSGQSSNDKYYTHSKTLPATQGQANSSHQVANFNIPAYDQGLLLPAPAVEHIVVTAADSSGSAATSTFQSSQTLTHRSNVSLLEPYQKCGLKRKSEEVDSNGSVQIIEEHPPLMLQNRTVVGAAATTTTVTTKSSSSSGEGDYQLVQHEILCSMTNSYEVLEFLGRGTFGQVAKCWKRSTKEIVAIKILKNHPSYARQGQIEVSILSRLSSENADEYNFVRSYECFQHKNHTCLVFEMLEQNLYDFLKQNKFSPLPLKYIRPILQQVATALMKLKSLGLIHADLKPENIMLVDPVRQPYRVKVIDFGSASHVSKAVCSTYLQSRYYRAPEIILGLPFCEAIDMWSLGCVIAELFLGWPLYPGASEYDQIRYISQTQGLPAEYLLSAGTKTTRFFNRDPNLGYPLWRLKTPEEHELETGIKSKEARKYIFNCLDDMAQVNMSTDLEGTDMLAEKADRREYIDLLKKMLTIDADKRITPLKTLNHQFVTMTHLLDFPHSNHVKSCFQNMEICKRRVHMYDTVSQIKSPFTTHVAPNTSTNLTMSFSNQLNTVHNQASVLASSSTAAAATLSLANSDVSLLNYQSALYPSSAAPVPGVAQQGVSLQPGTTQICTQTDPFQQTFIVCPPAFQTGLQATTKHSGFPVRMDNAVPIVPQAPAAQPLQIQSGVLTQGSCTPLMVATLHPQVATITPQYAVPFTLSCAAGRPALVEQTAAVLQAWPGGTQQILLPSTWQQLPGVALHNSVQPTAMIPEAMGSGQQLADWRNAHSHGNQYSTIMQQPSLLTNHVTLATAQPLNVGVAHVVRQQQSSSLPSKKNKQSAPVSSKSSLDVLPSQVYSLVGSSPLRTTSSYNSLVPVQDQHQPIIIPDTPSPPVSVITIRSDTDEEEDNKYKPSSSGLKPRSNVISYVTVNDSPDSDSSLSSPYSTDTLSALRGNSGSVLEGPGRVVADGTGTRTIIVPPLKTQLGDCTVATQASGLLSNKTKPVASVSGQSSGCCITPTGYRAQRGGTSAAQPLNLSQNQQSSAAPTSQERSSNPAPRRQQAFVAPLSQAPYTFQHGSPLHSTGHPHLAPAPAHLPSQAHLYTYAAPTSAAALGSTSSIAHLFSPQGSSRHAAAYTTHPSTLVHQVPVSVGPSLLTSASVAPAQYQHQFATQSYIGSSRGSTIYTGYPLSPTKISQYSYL
In short: as §1

Haspin(h) = biological target: T4, Haspin(h) (Homo sapiens, UniProt Q8TF76)
T4 construct: purchased Millipore
T4 sequence (Q8TF76 1-798): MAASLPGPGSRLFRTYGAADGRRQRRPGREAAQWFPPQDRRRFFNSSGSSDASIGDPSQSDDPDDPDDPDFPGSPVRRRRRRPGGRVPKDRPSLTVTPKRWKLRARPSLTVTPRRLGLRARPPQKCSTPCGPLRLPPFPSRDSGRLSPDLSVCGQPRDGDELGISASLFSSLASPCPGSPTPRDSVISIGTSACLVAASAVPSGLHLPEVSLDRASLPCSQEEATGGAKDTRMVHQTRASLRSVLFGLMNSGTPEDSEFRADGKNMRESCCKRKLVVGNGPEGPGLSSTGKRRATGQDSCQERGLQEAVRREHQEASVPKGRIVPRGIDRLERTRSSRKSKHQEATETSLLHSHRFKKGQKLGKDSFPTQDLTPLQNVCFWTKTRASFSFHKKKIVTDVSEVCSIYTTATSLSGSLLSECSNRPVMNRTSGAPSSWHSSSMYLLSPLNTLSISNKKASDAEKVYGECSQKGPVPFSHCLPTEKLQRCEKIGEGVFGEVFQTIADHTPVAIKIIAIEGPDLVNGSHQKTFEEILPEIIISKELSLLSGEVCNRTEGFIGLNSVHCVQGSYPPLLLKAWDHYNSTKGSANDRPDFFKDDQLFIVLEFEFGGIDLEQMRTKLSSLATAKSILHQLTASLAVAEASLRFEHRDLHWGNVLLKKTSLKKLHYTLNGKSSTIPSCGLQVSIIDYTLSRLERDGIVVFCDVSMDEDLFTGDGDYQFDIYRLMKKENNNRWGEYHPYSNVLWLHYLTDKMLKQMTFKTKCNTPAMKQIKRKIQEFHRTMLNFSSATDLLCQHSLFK
In short: as §1

IGF-1R(h), activated = biological target: T5, IGF-1R(h), activated (Homo sapiens, UniProt P08069)
T5 construct: purchased Millipore
T5 sequence (P08069 959-1367 limits assumed): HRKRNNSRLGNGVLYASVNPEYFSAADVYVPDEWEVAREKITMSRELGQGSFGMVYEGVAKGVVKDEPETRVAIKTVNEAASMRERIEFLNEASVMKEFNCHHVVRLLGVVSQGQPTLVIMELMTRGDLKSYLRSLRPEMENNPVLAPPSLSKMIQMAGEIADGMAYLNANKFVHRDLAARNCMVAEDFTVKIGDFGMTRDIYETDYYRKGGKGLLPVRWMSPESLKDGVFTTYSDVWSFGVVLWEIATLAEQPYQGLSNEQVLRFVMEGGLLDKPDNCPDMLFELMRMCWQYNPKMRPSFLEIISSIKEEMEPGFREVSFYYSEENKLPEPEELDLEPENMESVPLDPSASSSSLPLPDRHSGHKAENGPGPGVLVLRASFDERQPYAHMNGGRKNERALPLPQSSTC
In short: as §1

NEK7(h) = NEK7(h) (Homo sapiens, UniProt Q8TDX7)
NEK7(h), sequence (Q8TDX7 whole entry): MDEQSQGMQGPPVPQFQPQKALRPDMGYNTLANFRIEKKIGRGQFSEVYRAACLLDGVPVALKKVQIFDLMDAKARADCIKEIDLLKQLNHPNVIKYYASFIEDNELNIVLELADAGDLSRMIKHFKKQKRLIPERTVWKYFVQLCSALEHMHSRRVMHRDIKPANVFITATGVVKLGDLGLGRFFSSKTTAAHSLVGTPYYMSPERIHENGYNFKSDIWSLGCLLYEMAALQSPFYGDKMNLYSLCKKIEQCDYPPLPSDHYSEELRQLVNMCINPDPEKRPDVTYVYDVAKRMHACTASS
In short: as §1

PKCα(h) = PKCα(h) (Homo sapiens, UniProt P17252)
In short: as §1

Plk3(h) = biological target: T6, Plk3(h) (Homo sapiens, UniProt Q9H4B4)
T6 construct: purchased Millipore (IC50 Profiler Express service)
T6 sequence (Q9H4B4 whole entry): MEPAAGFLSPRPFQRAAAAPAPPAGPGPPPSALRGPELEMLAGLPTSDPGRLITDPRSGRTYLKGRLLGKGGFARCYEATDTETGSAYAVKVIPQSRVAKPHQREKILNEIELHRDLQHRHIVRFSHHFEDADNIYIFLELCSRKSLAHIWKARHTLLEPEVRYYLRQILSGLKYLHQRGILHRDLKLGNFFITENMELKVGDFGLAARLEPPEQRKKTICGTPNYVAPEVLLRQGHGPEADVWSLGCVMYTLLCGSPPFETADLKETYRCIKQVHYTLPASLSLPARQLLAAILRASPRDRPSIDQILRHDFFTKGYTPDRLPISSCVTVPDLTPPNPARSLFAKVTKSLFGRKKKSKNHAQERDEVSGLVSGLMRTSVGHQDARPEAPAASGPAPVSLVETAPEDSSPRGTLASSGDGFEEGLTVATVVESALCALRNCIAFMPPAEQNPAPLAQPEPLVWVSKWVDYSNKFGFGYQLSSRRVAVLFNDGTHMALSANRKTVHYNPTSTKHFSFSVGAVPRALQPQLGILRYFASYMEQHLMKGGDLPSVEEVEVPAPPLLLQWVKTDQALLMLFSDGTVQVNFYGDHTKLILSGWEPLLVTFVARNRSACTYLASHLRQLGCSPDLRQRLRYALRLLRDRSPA
In short: as §1

## KAFAKLAARLYRKALARQLGVAA [MMI-0400]
ALK4(h)
  ALK4(h) % activity: 130%
Bmx(h)
  Bmx(h) % activity: 26%
Fyn(h)
  Fyn(h) % activity: 54%
HIPK1(h)
  HIPK1(h) % activity: 91%
Haspin(h)
  Haspin(h) % activity: 36%
IGF-1R(h), activated
  IGF-1R(h), activated % activity: 77%
NEK7(h)
  NEK7(h) % activity: 87%
PKCα(h)
  PKCα(h) % activity: 86%
Plk3(h)
  Plk3(h) % activity: 129%

## YARAAARQARAKALNRQLGVA (Mammalian) [MMI-0200]
ALK4(h)
  ALK4(h) % activity: 152%
Bmx(h)
  Bmx(h) % activity: 76%
Fyn(h)
  Fyn(h) % activity: 75%
Haspin(h)
  Haspin(h) % activity: 71%
IGF-1R(h), activated
  IGF-1R(h), activated % activity: 94%
NEK7(h)
  NEK7(h) % activity: 96%
PKCα(h)
  PKCα(h) % activity: 100%

## FAKLAARLYRKALARQLGVAA [MMI-0300]
ALK4(h)
  ALK4(h) % activity: 140%
Fyn(h)
  Fyn(h) % activity: 74%
HIPK1(h)
  HIPK1(h) % activity: 74%
Haspin(h)
  Haspin(h) % activity: 48%
IGF-1R(h), activated
  IGF-1R(h), activated % activity: 80%
NEK7(h)
  NEK7(h) % activity: 84%
PKCα(h)
  PKCα(h) % activity: 89%
Plk3(h)
  Plk3(h) % activity: 127%

## HRRIKAWLKKIKALARQLGVAA (Mammalian) [MMI-0500]
ALK4(h)
  ALK4(h) % activity: 81%
Bmx(h)
  Bmx(h) % activity: 45%
Fyn(h)
  Fyn(h) % activity: 83%
HIPK1(h)
  HIPK1(h) % activity: 47%
Haspin(h)
  Haspin(h) % activity: 25%
IGF-1R(h), activated
  IGF-1R(h), activated % activity: 45%
NEK7(h)
  NEK7(h) % activity: 89%
PKCα(h)
  PKCα(h) % activity: 3%
Plk3(h)
  Plk3(h) % activity: 122%
